# From US20260000740A1, “USE OF A L-ASPARAGINASE IN COMBINATION WITH A FERROPTOSIS INDUCER FOR THE TREATMENT OF EXTRANODAL NATURAL KILLER/T-CELL LYMPHOMA” (Institut National de la Santé et de la Recherche Médicale, priority 2022, published 2026)
# B1: Kidrolase: L-Asparaginase from E. Coli (Kidrolase®) (protein, UniProt P00805 23-348, looked up)
# L-asparaginase 2: LPNITILATGGTIAGGGDSATKSNYTVGKVGVENLVNAVPQLKDIANVKGEQVVNIGSQDMNDNVWLTLAKKINTDCDKTDGFVITHGTDTMEETAYFLDLTVKCDKPVVMVGAMRPSTSMSADGPFNLYNAVVTAADKASANRGVLVVMNDTVLDGRDVTKTNTTDVATFKSVNYGPLGYIHNGKIDYQRTPARKHTSDTPFDVSKLNELPKVGIVYNYANASDLPAKALVDAGYDGIVSAGVGNGNLYKSVFDTLATAAKTGTAVVRSSRVPTGATTQDAEVDDAKYGFVASGTLNPQKARVLLQLALTQTKDPQQIQQIFNQY
# B2: Erwinase: L-ASP protein from Erwinia chrysanthemi, named crisantaspase, marketed as Erwinase®; SEQ ID NO:1 (protein, listed as Erwinia chrysanthemi)
# chain: ADKLPNIVILATGGTIAGSAATGTQTTGYKAGALGVDTLINAVPEVKKLANVKGEQFSNMASENMTGDVVLKLSQRVNELLARDDVDGVVITHGTDTVEESAYFLHLTVKSDKPVVFVAAMRPATAISADGPMNLLEAVRVAGDKQSRGRGVMVVLNDRIGSARYITKTNASTLDTFKANEEGYLGVIIGNRIYYQNRIDKLHTTRSVFDVRGLTSLPKVDILYGYQDDPEYLYDAAIQHGVKGIVYAGMGAGSVSVRGIAGMRKAMEKGVVVIRSTRTGNGIVPPDEELPGLVSDSLNPAHARILLMLALTRTSDPKVIQEYFHTY
# Assays:
# lipid peroxidation = test: Lipid peroxidation in KHYG1 cell line; type: cell-based, human; conditions: added to RSL3 combined with Erwinase; FIG. 2B
# KHYG-1 cells = test: Cell viability measurement by flow cytometry (Annexin V/PI); type: cell-based, human; conditions: for Effect of Gln addition on cell death: Gln addition combined to treatment alone; for Asparaginase sensitivity: KHYG1 cell line
# Experimental: KHYG-1 cells were seeded into flat wells of a 96-wells plate (Falcon) at a final concentration of 0.1 10^6 cells/well. APR-246 was dispensed at a final concentration of 20 uM and Asparaginases were dispensed at a final concentration range from 0.1 to 1 UI/mL. Plates were incubated at 37° C. and 5% CO2 for 72 hours in a humidity chamber. Cell viability was determined by flow cytometry using Annexin V (APC Annexin V, BD Biosciences, ref: 550474, 1:100 dilution)/Propidium Iodide (PI) (Propidium Iodide, Invitrogen, ref: BMS500FI-100, 1:20 dilution) staining. After 20 min incubation at 4° C. away from light, flow cytometry was performed using BD Fortessa cytometer (with HTS device for plate reading).
# Flow cytometry data were analysed using FlowJo software and GraphPad-Prism 9. R software and Rstudio interface (version 1.4.1106) were used for synergy score calculation. Calculations were based on the Loewe model.
# GSH = test: Quantification of GSH levels and GSH/GSSG ratio in tumor cells (metabolomics, specific quantification); type: cell-based, human; conditions: for GSH / GSH/GSSG ratio: metabolomic analysis in tumor cells after one day treatment, single agent
# Source text: (§1) Then, we wanted to uncover the metabolic changes induced by ASNase resistance.
# [1] = test system: NALM6 human acute lymphoblastic leukemia cell line; test: Asparaginase sensitivity of cell lines; type: cell-based
# MEC-04 cell line = test: Asparaginase sensitivity of cell lines; type: cell-based, human
# YT1 cell line = test: Asparaginase sensitivity of cell lines; type: cell-based, human
# extracellular Gln = test: Extracellular glutamine levels in supernatant of cultured cells; type: cell-based, human; conditions: cells cultured with each drug; compared to Kidrolase; data not shown
# Source text: Glutamine (Gln) intake from extracellular compartment is converted in Glutamate (Glu) by glutaminase (GLS) and participates to cancer cells protection from oxidative stress through solute carrier family 7-member 11 (SLC7A11) expression. SLC7A11 encodes the cystine/Glu antiporter xCT which imports cysteine into the cell in exchange for Glu […].
# mitochondrial ROS = test: Quantification of mitochondrial ROS levels in tumor cells; type: cell-based, human; conditions: Erwinase compared to Kidrolase; data not shown
# Source text: as §1
Molecule,Effect of ferrostatin-1 addition on lipid peroxidation accumulation (lipid peroxidation),"Effect of co-treatment with ferrostatin-1 on the decrease in cell viability (KHYG-1 cells; RSL3+Erwinase-treated cells, data not shown)","Effect of ferrostatin-1 addition on GSH decrease (GSH; added to RSL3 combined with Erwinase, FIG. 2B)",Effect of Gln addition on cell death (KHYG-1 cells; data not shown),Asparaginase sensitivity [1],Asparaginase sensitivity (MEC-04 cell line),Asparaginase sensitivity (YT1 cell line),Asparaginase sensitivity (KHYG-1 cells),GSH (GSH; data not shown),GSH/GSSG ratio (GSH; data not shown),Gln extracellular levels in the supernatant (extracellular Gln),ROS levels (mitochondrial ROS),"GSH levels (GSH; Erwinase compared to Kidrolase, data not shown)","Effect of extracellular Gln addition on intracellular GSH levels (GSH; upon Erwinase treatment, data not shown)"
"CCOC(=O)c1ccc(NC2CCCCC2)c(N)c1 [ferrostatin-1, reference compound]",reversed,abrogated,reversed,–,–,–,–,–,–,–,–,–,–,–
"COCC1(CO)C(=O)C2CCN1CC2 (stereo not shown) [APR-246, 2-(hydroxymethyl)-2-(methoxymethyl)-1-azabicyclo[2.2.2]octan-3-one, reference compound]",–,–,–,no effect,–,–,–,–,–,–,–,–,–,–
B1,–,–,–,no effect,resistant,high sensitivity,high sensitivity,resistant,decrease,decrease,–,–,–,–
B2,–,–,–,partially prevents cell death,resistant,high sensitivity,high sensitivity,resistant,more pronounced,more pronounced,deeper extracellular Gln depletion,higher ROS levels,GSH decrease,significantly rescues
